Starred links: 1 amine or outer side, 2 acyl side, 3 side chain; linkers in the order of their positions; H or OH if unused. Positions of bridges follow the written chain, without caps; N, C: chain ends. Non-standard residues stand in square brackets, D forms with d. Groups on a side chain read outwards from the residue. Chains are numbered I, II in the order given. No end group written: not given here. *: point of attachment. PEG12 = NCCOCCOCCOCCOCCOCCOCCOCCOCCOCCOCCOCCOCCC(=O)O; Phe(4-tBu) = CC(C)(C)c1ccc(C[C@H](N)C(=O)O)cc1; Dip = N[C@H](C(=O)O)C(c1ccccc1)c1ccccc1; γGlu = O=C(O)[C@H](CCC(=O)[*:2])N[*:1]; Palmitoyl = CCCCCCCCCCCCCCCC(=O)*; 2Pal = N[C@@H](Cc1ccccn1)C(=O)O; β3hF = N[C@H](CC(=O)O)Cc1ccccc1; NMeL = CN[C@@H](CC(C)C)C(=O)O; Isovaleryl = CC(C)CC(=O)*; Npc = nipecotic acid; Ahx = NCCCCCC(=O)O; βAla = NCCC(=O)O; Sar = CNCC(=O)O A value given as a limit tells only on which side of the number the result lay.

The labels stand for the following.
T1: human ferroportin (SLC40A1) fused in frame with GFP (human) (UniProt Q9NP59)
T1 sequence (looked up): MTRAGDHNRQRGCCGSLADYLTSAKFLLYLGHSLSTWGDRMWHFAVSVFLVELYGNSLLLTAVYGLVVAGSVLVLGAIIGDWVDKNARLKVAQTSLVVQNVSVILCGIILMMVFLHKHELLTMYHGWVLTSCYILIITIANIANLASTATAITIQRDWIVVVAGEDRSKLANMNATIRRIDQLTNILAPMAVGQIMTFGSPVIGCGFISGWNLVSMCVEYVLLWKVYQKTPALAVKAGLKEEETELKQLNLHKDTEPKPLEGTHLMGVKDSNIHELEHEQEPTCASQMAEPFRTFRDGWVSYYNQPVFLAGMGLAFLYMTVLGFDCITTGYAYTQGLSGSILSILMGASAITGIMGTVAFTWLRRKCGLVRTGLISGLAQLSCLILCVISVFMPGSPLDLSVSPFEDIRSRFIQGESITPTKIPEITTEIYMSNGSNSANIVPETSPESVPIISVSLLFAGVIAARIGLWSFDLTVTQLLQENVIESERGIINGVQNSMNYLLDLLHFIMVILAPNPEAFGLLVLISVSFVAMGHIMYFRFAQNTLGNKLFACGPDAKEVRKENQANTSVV

B1: Compd. ID 253 (peptide)
peptide: DTHXPCIKXKKC
modifications: N-term isovaleric acid; 4 Dpa; 8 (D)Lys(PEG12_OMe); 9 bhPhe; 10 Lys(1PEG2_1PEG2_IsoGlu_C18_Diacid); 11 (D)Lys(PEG12_OMe); C-term NH2
B2: Compd. ID 45 (peptide)
peptide: DTHXPCIKXKKC
modifications: N-term isovaleric acid; 4 Dpa; 8 (D)Lys; 9 bhPhe; 10 Lys(2Peg11′_KKKGS_Palm); 11 (D)Lys; C-term NH2
B3: Compd. ID 41 (peptide)
peptide: DTHXPCIKXKKC
modifications: N-term isovaleric acid; 4 Dpa; 8 (D)Lys; 9 bhPhe; 10 Lys(2Peg11′_Peg11_Palm); 11 (D)Lys; C-term NH2
B4: Compd. ID 39 (peptide)
peptide: DTHXPCIKXKKC
modifications: N-term isovaleric acid; 4 Dpa; 8 (D)Lys; 9 bhPhe; 10 Lys(Ahx_Ahx_Palm); 11 (D)Lys; C-term NH2
B5: Compd. ID 8 (peptide)
peptide: DTHXPCIKXKC
modifications: N-term isovaleric acid; 4 Dpa; 8 Lys[Ahx-Behenic_Acid]; 9 bhPhe; 10 (D)Lys; C-term NH2
B6: Compd. ID 38 (peptide)
peptide: DTHXPCIKXKKC
modifications: N-term isovaleric acid; 4 Dpa; 8 (D)Lys; 9 bhPhe; 10 Lys(Lys[Peg11_Palm]2); 11 (D)Lys; C-term NH2
B7: Compd. ID 43 (peptide)
peptide: DTHXPCIKXKKC
modifications: N-term isovaleric acid; 4 Dpa; 8 (D)Lys; 9 bhPhe; 10 Lys(1Peg2_1Peg2_Ahx_C18_Diacid); 11 (D)Lys; C-term NH2
B8: Compd. ID 6 (peptide)
peptide: DTHXPCIKXKC
modifications: N-term isovaleric acid; 4 Dpa; 8 Lys[isoGlu-Palm]; 9 bhPhe; 10 (D)Lys; C-term NH2
B9: Compd. ID 203 (peptide)
peptide: DTHFPCIKXKKC
modifications: not fully specified; N-term isovaleric acid; 4 MePhe; 8 (D)Lys; 9 bhPhe; 10 Lys(Ahx_Palm); 11 (D)Lys; C-term NH2
B10: Compd. ID 44 (peptide)
peptide: DTHXPCIKXKKC
modifications: N-term isovaleric acid; 4 Dpa; 8 (D)Lys; 9 bhPhe; 10 Lys(2Peg11′_KKK_Palm); 11 (D)Lys; C-term NH2
B11: Compd. ID 5 (peptide)
peptide: DTHXPCIKXKC
modifications: N-term isovaleric acid; 4 Dpa; 8 Lys[Ahx-isoGlu-Palm]; 9 bhPhe; 10 (D)Lys; C-term NH2
B12: Seq. No. 317 (peptide)
peptide 1: Isovaleryl-DTHFPCIK([γGlu-Palmitoyl])FEPR
peptide 2: SKGCK-NH2
modifications: disulfide I:6-II:4
B13: Compd. ID 42 (peptide)
peptide: DTHXPCIKXKKC
modifications: N-term isovaleric acid; 4 Dpa; 8 (D)Lys; 9 bhPhe; 10 Lys(1Peg2_1Peg2_IsoGlu_C18_Diacid); 11 (D)Lys; C-term NH2
B14: Compd. ID 40 (peptide)
peptide: DTHXPCIKXKKC
modifications: N-term isovaleric acid; 4 Dpa; 8 (D)Lys; 9 bhPhe; 10 Lys(Ahx_Ahx_Ahx_Palm); 11 (D)Lys; C-term NH2

The target in the experiment is T1, human ferroportin (SLC40A1) fused in frame with GFP (human). The experiment in a line: cell-based or functional assay.
Regarding B1, the FPN EC50 is above 3000 nM.

In the case of Isovaleryl-DTH[Dip]PCI[β3hF]K([Ahx-Palmitoyl])[dK]C-NH2 (disulfide 6-11 (inferred)) [Compd. ID 206], the FPN EC50 was 10.8 nM.

As for B2, the FPN EC50 amounted to 24.5 nM.

As to Isovaleryl-DTHFPCLK([γGlu-Palmitoyl])FEPRSKGCK-NH2 (disulfide 6-16 (inferred)) [Compd. ID 216], the FPN EC50 is 16.6 nM.

B3 showed an FPN EC50 of 18.5 nM.

Take B4: the FPN EC50 turned out to be 19.3 nM.

In turn, DTHXPCIKXKC (N-term isovaleric acid; 4 Dpa; 8 (D)Lys; 9 bhPhe; 10 Lys(Ac); C-term NH2) [Seq. No. 326] displayed an IC50: FPN internalisation of 95.7 nM.

With B5, the FPN EC50 turned out to be 550 nM.

The molecule Isovaleryl-DTH[Dip]PCI[βAla][β3hF]K([PEG12-Palmitoyl])[dK]C-NH2 (disulfide 6-12 (inferred)) [Seq. No. 333] displayed an IC50: FPN internalisation of 7.16 nM.

In turn, DTHXPCIKXKKC (N-term isovaleric acid; 4 Dpa; 8 (D)Lys; 9 bhPhe; 11 (D)Lys; C-term NH2) [Seq. No. 327] displayed an IC50: FPN internalisation of 142 nM.

In turn, Isovaleryl-DTH[Dip]PC[NMeL][dK][β3hF]K([Ahx-Palmitoyl])[dK]C-NH2 (disulfide 6-12 (inferred); not fully specified) [Compd. ID 201] registered an FPN EC50 of 12.5 nM.

In turn, B6 gave an FPN EC50 of 33 nM.

For Isovaleryl-DTH[Dip]PCI[βAla][β3hF][dK]C-NH2 (disulfide 6-11 (inferred)) [Seq. No. 323], the IC50: FPN internalisation is 10.6 nM.

As for Isovaleryl-DTH[Dip]PCI[dA][β3hF]K([PEG12-Palmitoyl])[dK]C-NH2 (disulfide 6-12 (inferred)) [Seq. No. 332], the IC50: FPN internalisation stood at 11 nM.

Isovaleryl-DTHFPCIK(Ac)FK([PEG12-Palmitoyl])PK(Ac)SK(Ac)[Sar]CK-NH2 (disulfide 6-16 (inferred)) [Compd. ID 214]: the FPN EC50 is 7.19 nM.

On to Isovaleryl-DTHFPCI[dK]FK([PEG12-Palmitoyl])CK-NH2 (disulfide 6-11 (inferred)) [Seq. No. 334], for which the IC50: FPN internalisation was 32 nM.

Consider DTHXPCIKXKC (N-term isovaleric acid; 4 Dpa; 8 Lys(Ahx_Palm); 9 2Pal; 10 (D)Lys; C-term NH2) [Seq. No. 321], for which the IC50: FPN internalisation came out at 21.7 nM.

With Isovaleryl-DTH[Dip]PCI[β3hF][dK]C-NH2 (disulfide 6-10 (inferred)) [Seq. No. 324], the IC50: FPN internalisation was 23.3 nM.

Molecule Isovaleryl-DTH[Dip][Npc]CI[dK][Phe(4-tBu)][dK]CK([PEG12-Palmitoyl])-NH2 (disulfide 6-11 (inferred)) [Seq. No. 328] registered an IC50: FPN internalisation of 16.5 nM.

On to DTHFPCIKXKKC (N-term isovaleric acid; 8 (D)Lys; 9 bhPhe; 10 Lys(Palm); C-term NH2) [Compd. ID 205], for which the FPN EC50 stood at 4.23 nM.

For Isovaleryl-DTH[Dip][Npc]CI[dK][β3hF]K([Ahx-Palmitoyl])[dK]C-NH2 (disulfide 6-12 (inferred)) [Compd. ID 4], the FPN EC50 was found to be 6.35 nM.

Isovaleryl-DTH[Dip]PCIK([Ahx-Palmitoyl])[2Pal]C-NH2 (disulfide 6-10 (inferred)) [Seq. No. 320]: the IC50: FPN internalisation amounted to 9.72 nM.

In turn, B7 yielded an FPN EC50 of 283 nM.

The molecule Isovaleryl-DTHFPC[NMeL]K([γGlu-Palmitoyl])FEPRSKGCK-NH2 (disulfide 6-16 (inferred)) [Compd. ID 244] showed an FPN EC50 of 9.59 nM.

As to Isovaleryl-DTH[Dip]PCI[β3hF]K([PEG12-Palmitoyl])[dK]C-NH2 (disulfide 6-11 (inferred)) [Seq. No. 330], the IC50: FPN internalisation was determined as 6.93 nM.

With Isovaleryl-DTHFPCIK([γGlu-Palmitoyl])FEPRSKGC (disulfide 6-16 (inferred)) [Compd. ID 218], the FPN EC50 was found to be 15.6 nM.

Molecule DTHXPCIKXKRC (N-term isovaleric acid; 4 Dpa; 8 (D)Lys; 9 bhPhe; 10 Lys(Ahx-Palm); C-term NH2) [Compd. ID 2] displayed an FPN EC50 of 11.8 nM.

B8 displayed an FPN EC50 of 6.16 nM.

The molecule B9 yielded an FPN EC50 of 28 nM.

B10 registered an FPN EC50 of 37.9 nM.

As for B11, the FPN EC50 came to 0.75 nM.

The molecule B12 yielded an IC50: FPN internalisation of 13.7 nM.

As to B13, the FPN EC50 stood at 1700 nM.

As for Isovaleryl-DTHFPCIK([γGlu-Palmitoyl])FEPR [Compd. ID 219], the FPN EC50 amounted to 12.6 nM.

Consider Isovaleryl-DTH[Dip]PCII[β3hF]K([PEG12-Palmitoyl])[dK]C-NH2 (disulfide 6-12 (inferred)) [Seq. No. 331], for which the IC50: FPN internalisation worked out at 24 nM.

On to DTHXPCIKXKC (N-term isovaleric acid; 4 Dpa; 8 (D)Lys(Ac); 9 bhPhe; 10 Lys(Ac); C-term NH2) [Seq. No. 325], for which the IC50: FPN internalisation is 37.8 nM.

Take B14: the FPN EC50 was 18.5 nM.

(Values after patent publication US20240018189A1 (PROTAGONIST THERAPEUTICS, published 2024).)
